This is an account of results in patent publication US20040175362A1.

The target of this assay is coxsackie-adenovirus receptor (CAR) (human) (UniProt P78310). As to the kind of experiment: cell-based or functional assay.
UniProt P78310, sequence (P78310 20-365): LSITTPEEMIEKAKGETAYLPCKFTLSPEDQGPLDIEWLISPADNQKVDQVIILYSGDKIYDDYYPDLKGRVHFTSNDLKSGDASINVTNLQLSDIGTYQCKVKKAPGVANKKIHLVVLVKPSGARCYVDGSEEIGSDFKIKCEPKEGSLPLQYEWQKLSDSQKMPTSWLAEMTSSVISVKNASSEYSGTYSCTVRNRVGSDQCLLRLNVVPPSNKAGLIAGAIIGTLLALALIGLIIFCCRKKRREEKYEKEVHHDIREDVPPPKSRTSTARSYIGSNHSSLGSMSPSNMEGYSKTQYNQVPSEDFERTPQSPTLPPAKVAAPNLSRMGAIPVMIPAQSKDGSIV

In the case of “RGD-modified Ad5 fiber (… in the HI loop of the knob) as carried by the virions of Ad5lucRGD (from UniProt P11818 1-546; P11818 547-581)”, the gene expression blocked by recombinant Ad5 fiber knob, Ad5lucRGD on 293 cells lay within 40 to 60%; the gene transfer blocked by knob protein, Ad5lucRGD on primary ovarian cancer cells, MOI 1 pfu/cell stood at 20%; the luciferase activity blocked by purified fiber knob, Ad5lucRGD on SKOV3.1p1 cells is 20%.
In the case of “wild type Ad5 fiber as carried by the virions of AdCMVLuc (from UniProt P11818 1-581)”, the gene transfer blocked by purified fiber knob, AdCMVLuc on SKOV3.1p1 cells is > 90% and the luciferase activity blocked by recombinant Ad5 fiber knob, AdCMVLuc on 293 cells lay within 85 to 93%.
